Measurements taken from US20150140022A1 (FRAUNHOFER GESELLSCHAFT ZUR FOERDERUNG DER ANGEWANDTEN …, published 2015).
Blank lines part the entries; values can stand above or below the binder they belong to.

What was measured:
CD30 [1] = molecular target: T1, CD30 (human, UniProt P28908 19-595); test: flow cytometry on L540 cells (lacking EGFR but expressing CD30), anti-His Alexa 488 detection
T1 construct: whole, on cells; Endogenous antigen on L540 cells
T1 sequence (looked up): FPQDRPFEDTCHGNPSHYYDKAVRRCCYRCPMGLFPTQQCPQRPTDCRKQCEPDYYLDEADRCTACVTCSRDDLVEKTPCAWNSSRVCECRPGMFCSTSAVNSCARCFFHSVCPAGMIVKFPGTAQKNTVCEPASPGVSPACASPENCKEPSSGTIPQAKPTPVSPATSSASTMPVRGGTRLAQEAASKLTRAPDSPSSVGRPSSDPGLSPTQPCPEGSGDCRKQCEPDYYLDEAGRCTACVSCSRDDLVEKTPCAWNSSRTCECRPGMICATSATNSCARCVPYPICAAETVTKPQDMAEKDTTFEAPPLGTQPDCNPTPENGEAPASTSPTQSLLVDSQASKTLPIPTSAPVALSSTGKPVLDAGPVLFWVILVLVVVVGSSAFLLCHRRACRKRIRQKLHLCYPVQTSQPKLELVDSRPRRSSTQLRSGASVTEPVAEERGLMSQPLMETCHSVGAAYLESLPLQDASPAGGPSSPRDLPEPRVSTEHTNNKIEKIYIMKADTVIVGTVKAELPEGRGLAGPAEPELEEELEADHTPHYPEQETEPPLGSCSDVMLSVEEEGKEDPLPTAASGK

CD30 [2] = molecular target: T1, CD30; test: flow cytometry on L540 cells (CD30+, EGFR-), direct fluorescence
Experimental: Flow cytometry analysis was carried out after incubating 4×10⁵ cells with each fusion protein for 20 min at […] in PBS. […] As a control, scFv-Ki4-SNAP was labeled with BG-VistaGreen (black curve) and its binding activity was tested against A431, L540 and CHO-K1 cells (filled gray curves). […] As a control, scFv-Ki4-SNAP labeled with BG-Ce6 (black curve) was tested against A431, L540 and CHO-K1 cells (filled gray curves).
The binding efficiency of the labeled and unlabeled fusion proteins was determined by flow cytometry using a FACSCalibur (Becton & Dickinson, Heidelberg, Germany) and CellQuest software. […] Approximately 4×10⁵ cells were incubated in 200 μL PBS containing 0.5 μg of labeled protein for 20 min on ice. The cells were then washed twice with 1.8 mL PBS in a conventional cell washer and analyzed by flow cytometry.

binding result (CD30 [1]): no binding (tested: 0.5 µg/ml)
B1: scFv-425-SNAP (scFv)
scFv: MAQVQLQQSGAELVKPGASVKLSCKASGYTFTSHWMHWVKQRAGQGLEWIGEFNPSNGRTNYNEKFKSKATLTVDKSSSTAYMQLSSLTSEDSAVYYCASRDYDYDGRYFDYWGQGTTVTVSSGGGGSGGGGSGGGGSDIELTQSPAIMSASPGEKVTMTCSASSSVTYMYWYQQKPGSSPRLLIYDTSNLASGVPVRFSGSGSGTSYSLTISRMEAEDAATYYCQQWSSHIFTFGSGTELEIKRHHHHHH
notes: Secreted from HEK-293T cells by an Ig kappa leader and purified by its His6 tag; not shown: SNAP-tag (hAGTm, modified human O6-alkylguanine-DNA alkyltransferase, 20 kDa)

B2: scFv-425-SNAP-VistaGreen (scFv)
scFv: B1 scFv
modifications: BG-Vista Green dye covalently coupled to the active site of the SNAP-tag
notes: not shown: SNAP-tag (hAGTm)
binding result (CD30 [2]): no binding (tested: 0.5 µg of labeled protein in 200 µL)

B3: scFv-425-SNAP-Ce6 (scFv)
scFv: B1 scFv
modifications: chlorin e6 through a benzyl-PEG24 linker (BG-PEG24-Ce6) covalently coupled to the active site of the SNAP-tag
notes: not shown: SNAP-tag (hAGTm)
binding result (CD30 [2]): no binding (tested: 0.5 µg of labeled protein in 200 µL)
